Measured values taken from article PMC10397247.

What was measured:
Experiment in all cases: two-hybrid library CCNG1;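 note: natural log of median RNA to DNA barcode read ratio; higher means stronger binding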
4H1373-bN = biological target: T1, 4H1373-bN
T1 chain: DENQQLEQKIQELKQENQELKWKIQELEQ

4H3817-bN = biological target: T2, 4H3817-bN
T2 chain: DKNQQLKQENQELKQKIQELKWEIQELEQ

4H850-bN = biological target: T3, 4H850-bN
T3 chain: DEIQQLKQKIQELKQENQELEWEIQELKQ

4H1449-bN = biological target: T4, 4H1449-bN
T4 chain: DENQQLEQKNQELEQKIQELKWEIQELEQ

4H1985-bN = biological target: T5, 4H1985-bN
T5 chain: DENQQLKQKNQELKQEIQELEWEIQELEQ

4H1348-bN = biological target: T6, 4H1348-bN
T6 chain: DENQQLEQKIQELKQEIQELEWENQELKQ

4H3628-bN = biological target: T7, 4H3628-bN
T7 chain: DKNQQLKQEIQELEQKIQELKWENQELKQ

4H2702-bA = biological target: T8, 4H2702-bA
T8 chain: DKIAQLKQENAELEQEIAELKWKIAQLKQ

4H1338-bN = biological target: T9, 4H1338-bN
T9 chain: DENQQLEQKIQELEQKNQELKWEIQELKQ

4H1544-bN = biological target: T10, 4H1544-bN
T10 chain: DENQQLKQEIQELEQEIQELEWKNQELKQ

4H1710-bN = biological target: T11, 4H1710-bN
T11 chain: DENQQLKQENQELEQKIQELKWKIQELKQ

4H1899-bN = biological target: T12, 4H1899-bN
T12 chain: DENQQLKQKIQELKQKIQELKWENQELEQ

4H3974-bN = biological target: T13, 4H3974-bN
T13 chain: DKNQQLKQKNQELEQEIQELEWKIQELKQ

4H3613-bN = biological target: T14, 4H3613-bN
T14 chain: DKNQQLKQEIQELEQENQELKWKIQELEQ

4H570-bN = biological target: T15, 4H570-bN
T15 chain: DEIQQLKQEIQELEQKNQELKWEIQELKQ

4H3858-bN = biological target: T16, 4H3858-bN
T16 chain: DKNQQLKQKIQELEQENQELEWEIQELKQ

In the case of DENQQLEQKIQELEQKNQELKWEIQELKQ [4H1338-bN], the interaction score (4H1373-bN) is reported as -1.16, the interaction score (4H3817-bN) is reported as -0.326 and the interaction score (4H850-bN) is reported as 0.8. For the same binder, the interaction score (4H1449-bN) was -0.847, the interaction score (4H1985-bN) was -0.88 and the interaction score (4H1348-bN) was -1.29. For the same binder, the interaction score (4H3628-bN) was -0.229, the interaction score (4H2702-bA) was -2.23 and the interaction score (4H1338-bN) was 0.0248. It also gave an interaction score (4H1544-bN) of 0.114, an interaction score (4H1710-bN) of -0.345 and an interaction score (4H1899-bN) of -2.73. For the same binder, the interaction score (4H3974-bN) was -0.674, the interaction score (4H3613-bN) was -0.479 and the interaction score (4H570-bN) was -0.567. For the same binder, the interaction score (4H3858-bN) was 1.37.
